Results: the supplement of paper PMC12764529
± gives the half width of the 95% confidence interval.

How the values were obtained:
[1] = folding stability dG unfold from chymotrypsin proteolysis; higher = more stable
Summary of the method: (§1)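 Mini-proteins designed to be under 80 residues and free of cysteine were carried in a PA-tagged cDNA display construct and digested with trypsin and with chymotrypsin. Each protease was applied at 11 threefold-diluted concentrations, alongside a no-protease condition, before sequencing. K50 came from Bayesian fitting of the sequencing counts, and unfolding free energy was obtained by comparing it with a sequence-predicted unfolded-state K50 and a shared folded-state K50, for each protease separately or for both together. Designs were retained only if their AlphaFold2 dimer inter-PAE exceeded 15.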

[2] = folding stability dG unfold (combined trypsin and chymotrypsin); higher = more stable
Summary of the method: as §1

Sequence	folding stability dG unfold [1]	folding stability dG unfold [2]
SAGGSSRTISIPVSPSLSPEEVAELIKKEVKKMGEDKEVKVLSVDPSGRIDVLVGDEPITVDASLPSAGGSA [r2_102_JUSTAS]	0.623 ± 0.1 kcal/mol	0.235 ± 0.2 kcal/mol
SAGGSSYIVKATPAGGPSFEAEATLTSVSSEGDNFTANVEVTFDGKPVTLTFDGDKVGPVVIEPPESAGGSA [r2_319_TrMRF]	0.558 ± 0.15 kcal/mol	-0.0521 ± 0.17 kcal/mol
SAGGSTAEELADQIHKKFMEQGYKITDVDITYNPNNWVMVKATIRNPDDPNQRMKMNIMIPKDEIKSAGGSA [r2_384_TrROS]	0.649 ± 0.32 kcal/mol	0.239 ± 0.29 kcal/mol
SAGGSYMVKVEWRNNNKEMEMTHPFDDPEDALNFAHDLLPNGMELDIEVFDPKEGEPIGTVPFRVDSAGGSA [r2_390_TrROS]	-0.536 ± 0.26 kcal/mol	< -1 kcal/mol
SAGGTIKPGQPVRIRAEWYNGNKEWTHTHEFPLPENQTLDDVADEILEHLPPEHNKNFKVRIEIEPVSAGGS [r16_321_TrROS]	0.904 ± 0.1 kcal/mol	0.373 ± 0.11 kcal/mol
SAGGWVKDPDGQTVEMKVLDPGMNKDNAKPFADNIAEQLHRQHGMNPNNVKVKVETDPENGTVRVKVKSAGG [r13_913_TrROS]	-0.385 ± 0.39 kcal/mol	< -1 kcal/mol
SAGKMTIEIVVEVKPGMTEEELKEKLEELVKKLKEEFPELKNLEIKIVEVKVERLEDGTLRVTVKIEVKSAG [r5_985_TrROS_Hall]	3.08 ± 0.24 kcal/mol	> 6 kcal/mol
SAGKVLEELGYELVEEKEEEIGDVKIITATFPVGESPVVVTAEVTEKKEDDKPIVKVKVTVTPLPPEAPSAG [r5_516_JUSTAS]	0.977 ± 0.17 kcal/mol	0.58 ± 0.51 kcal/mol
SAGMKIKVTIERGGDRAERILPPEEAKALLDKYPEDGEIPLDLEGEEVTVKIEKTPPALPTEEAIKELKSAG [r5_669_JUSTAS]	0.11 ± 0.4 kcal/mol	< -1 kcal/mol
SAGMKVTVSPASLVFDPATGRLLRPVLVTVEDTGGGGKTPAEEQAAAAEATRRALAAELAPRTGSALDLSAG [r5_333_JUSTAS]	0.912 ± 0.069 kcal/mol	0.37 ± 0.091 kcal/mol
SAGMPADTFIELNITITVPSEEYEADPAAVKAAADAAIAAAKAAGLPVDAATFTFERVPPVDPNNPRVGSAG [r5_979_JUSTAS]	-0.605 ± 0.2 kcal/mol	< -1 kcal/mol
SAGMTPEDLKNGKPVKVPIPIPIRDPDGKPWAEIPIKGPMPVKDIMEVIETIREIARELKIPPSDGDKNSAG [r5_606_TrROS]	-0.743 ± 0.53 kcal/mol	< -1 kcal/mol
SAGMVIELPNATITIETVPDPSSSNKVYRVTVTAHLPDGSRPVVVLTFPENVPIEEILKEAIKAAEELLSAG [r5_704_JUSTAS]	5.93 ± 0.14 kcal/mol	> 6 kcal/mol
SAGPAVAVAPIPALEARPDLKDALVRVVVSPLPDGRVAVDVRPVFVPKPVITPEEARELEELAEKLAASAGG [r19_313_TrMRF]	0.297 ± 0.027 kcal/mol	-0.224 ± 0.13 kcal/mol
SAGPEIKIEPRSYDPKKGIFTYSAYVLDYKDGKKEREIEVGTWRYYGPDGTVEPISEEDILQKAKDLLSSAG [r5_909_TrMRF]	0.543 ± 0.32 kcal/mol	0.371 ± 0.18 kcal/mol
SAGPITPEEIQEKVTKAMEEEGMDNVNVDVQRDEDNGRITIQVEVQMPPGNKEKAQRIQDAIQDELGIKSAG [r5_9_TrROS]	0.89 ± 0.062 kcal/mol	0.277 ± 0.099 kcal/mol
SAGPWKIEVEQYDPNGKKEEIEDPEDLLDLAKDLPPNRMVHIKIPNGRETIMFQNPDGNVFVLKIERPESAG [r5_506_TrROS]	-0.0396 ± 0.33 kcal/mol	-0.374 ± 0.34 kcal/mol
SAGRIKSIQINPYENPNGQYPITVRVRWPGNGKERDRNFPMSPNDARNQAKELAKELPGKPLEIDEITSAGG [r19_317_TrROS]	-0.545 ± 0.15 kcal/mol	-0.943 ± 0.19 kcal/mol
SAGRRKVEIPIPFDDPGQAMSADELADELRELGLKPGHEPKVEPHPDGYMRVKFEVPGPEVTIHIPMWDSAG [r5_144_TrROS]	0.747 ± 0.16 kcal/mol	0.183 ± 0.098 kcal/mol
SAGRRSLVLLAPVDDPARAPTAEELARELLALGGTPATRPRAEPLEDDTLRVTFEAPGVDVTVLVDLRASAG [r5_144_TrMRF]	0.638 ± 0.12 kcal/mol	0.138 ± 0.11 kcal/mol
SAGSAVVRDFDFEVPPGYGVLDVTVTEGPGPPVWEGTVTFQAGGAPETLTVTIPVDPATGARSVAMTAGSAG [r5_136_JUSTAS]	0.267 ± 0.13 kcal/mol	-0.235 ± 0.25 kcal/mol
SAGSVSLPPGAVLTEERKLPDGSLVRTTTTVSPVPELPVDRIETTTEFYAPGGEKIGTETSSSLRPPGESAG [r5_787_JUSTAS]	-0.0977 ± 0.13 kcal/mol	-0.493 ± 0.35 kcal/mol

Sequence	folding stability dG unfold [1]	folding stability dG unfold [2]
SAGSVTRSFPSGSSVSAETDPETNTITISTSPSSGQLVAQLPTAGEKVVPVSDRDLEEAAKEAAEALLSSAG [r5_447_JUSTAS]	-0.134 ± 0.12 kcal/mol	-0.854 ± 0.32 kcal/mol
SAGVKIERDPNPGWMEITYPIDNKPIQIEIPMDPNNGQMKVKVEYGDGKPKEYTIPGGSIEEIIEDLFSAGG [r19_159_TrROS]	0.111 ± 0.23 kcal/mol	< -1 kcal/mol
SAGVRYLVATGEDGATVVVPVPAETEEEAEEKAEELARELAERFPGARFVPVPVEEPELPPVEALPGVESAG [r5_950_TrMRF]	0.429 ± 0.11 kcal/mol	-0.46 ± 0.57 kcal/mol
SAGWDLKIEPEPNPDNGMRMINIEYEDPDGDGPYTVSIMYHNGKIKAVEVQDPNTGEPELTPEALEELFSAG [r5_872_TrROS]	0.14 ± 0.26 kcal/mol	-0.305 ± 0.49 kcal/mol
SAIKIEDDPNGYQQIEIPNPENGRKIVITMMYSPDGQFQMSLQRMDPNGKKKTITAPMPVEEAIDELKDSAG [r14_179_TrROS]	0.698 ± 0.33 kcal/mol	0.0571 ± 0.6 kcal/mol
SALDPAAGTVTATVTRPVTLPDGRTVPVTRPVRVPVTYDVVVRDPETGEVVRAADYDPETGRLRDASAASAG [r14_122_TrMRF]	0.548 ± 0.37 kcal/mol	< -1 kcal/mol
SAMDLSTLPPSTSVTPSTSSLPGNLSRSTYTLTTRDPETGALTVTTVTTYTDPSSSSTTVTPSTTLLPASAG [r14_307_JUSTAS]	0.34 ± 0.22 kcal/mol	0.00104 ± 0.15 kcal/mol
SAMKIEIEVPSLEQVKKLEKLLPDKYKISEVKVDPETKKVYVIIELDPSLSPEEVAKLEKEFEEVVKEESAG [r14_306_TrMRF]	5.03 ± 0.28 kcal/mol	5.14 ± 0.58 kcal/mol
SAMNVTLTKHPDGTYTVGATLPGYSPVSTQTIPSSVPSYTVTYRTPDEVLKVTYKDSGLTPERVPISRLSAG [r14_403_JUSTAS]	0.395 ± 0.053 kcal/mol	-0.0343 ± 0.044 kcal/mol
SAPVRTVTLNVPVERDAAGNLVPVSPEEIVAELEKEGYPREEIEVKNVTETTIPVTIEVDLVNGKMRVLGSA [r9_225_JUSTAS]	-0.326 ± 0.61 kcal/mol	< -1 kcal/mol
SAYYKIRWNNGREIELKDMPIEDLEKYFPGGPVEIEPVPPVPVVRIESWEQANDLAEQNPPNHTIIVMDSAG [r14_445_TrROS]	-0.476 ± 0.83 kcal/mol	-0.634 ± 0.56 kcal/mol
SGMDVFVASDPGPSYLRAEARLPGGESRVLTSGPPEEARALVERLAAEEDPAMAVRRVEEVPPGELPPELSA [r9_137_JUSTAS]	-0.38 ± 0.18 kcal/mol	< -1 kcal/mol
SGMTIEVEKEIEIYDPEKGVKIGSVKVKVLVPTSYSPEEIPEIAEKEIKKAKEELEKPEPPEVNEDGTLKSA [r9_454_JUSTAS]	0.751 ± 0.035 kcal/mol	0.241 ± 0.16 kcal/mol
SGMTTPVAEIDNTDGKPEKVKEWIKKTIPKTPPVTVTRTLASGAPSTWTIDPNTGKVTESVPGGHVTVAASA [r9_853_JUSTAS]	-1.07 ± 0.7 kcal/mol	< -1 kcal/mol
SGMVTLEDIAAAPPGTPVVVTTKKQGSKNLTFIDAVVDGARSSASYPSIEEARKELEAVGYPVEFVDPAESA [r9_1021_JUSTAS]	0.143 ± 0.066 kcal/mol	-0.429 ± 0.19 kcal/mol
SIIIPPKESAEEVLNEIKELLPPGRKYKITVFNPENGRMHEADFDPKKGNIEVEPHPFPNGPPFLMIERKSA [r9_1059_TrROS]	-0.387 ± 0.63 kcal/mol	-0.42 ± 0.49 kcal/mol
SITISPDKVYTLKNVRVGDYEVDGLVAVAGPDGTVYVPADVRPVVVPPPAPPVGLDPVDGGVYDITDPSVSA [r9_603_TrMRF]	-0.965 ± 0.61 kcal/mol	< -1 kcal/mol
SKPITADEIAKHFPGIKDVEPTPNKKRLDFDNPNGHKPTIEVSPDGTIMIEHQNPDNGQKQEQEIPIDDLSA [r9_427_TrROS]	0.596 ± 0.056 kcal/mol	0.0598 ± 0.26 kcal/mol
SKTIYFPIPNDDPEEAVEWIADKLLEEHGHKIKDVEIPHKNGYYVRIEVDPNNPKIDIEVWPYDPDGEPLSA [r9_173_TrROS]	0.728 ± 0.18 kcal/mol	0.534 ± 0.52 kcal/mol
SKTVVIAADPNNPEAIKKAIEEAPPDTTIVIVVPLENGEYPKVTITRKPPEVPPIPPELLSEEEIKELLPSA [r9_1103_TrMRF]	0.836 ± 0.053 kcal/mol	0.42 ± 0.14 kcal/mol
SMTIKELLKAHPGQPVEDLAKRIMDEMNANFPNGMPIKINLEYDPGGIKVDVEMWNNDKPQTDEFTIRPDSA [r9_805_TrROS]	0.327 ± 0.091 kcal/mol	-0.000922 ± 0.15 kcal/mol
SMTLVGTTTLPNATVTTYKNETKYIVLTYDPVEAGEPAAVSYVEKYEGNKVVKKKKVAPEEIEKAIEELLSA [r9_57_JUSTAS]	0.609 ± 0.32 kcal/mol	0.247 ± 0.48 kcal/mol
